Measured values published in patent US20100040541A1 (published 2010).

T1: CD20 (human B lymphocyte-restricted differentiation antigen, Bp35) on human Burkitt lymphoma cells (Raji, Daudi, Ramos) (human) (UniProt P11836)
T1 sequence (looked up): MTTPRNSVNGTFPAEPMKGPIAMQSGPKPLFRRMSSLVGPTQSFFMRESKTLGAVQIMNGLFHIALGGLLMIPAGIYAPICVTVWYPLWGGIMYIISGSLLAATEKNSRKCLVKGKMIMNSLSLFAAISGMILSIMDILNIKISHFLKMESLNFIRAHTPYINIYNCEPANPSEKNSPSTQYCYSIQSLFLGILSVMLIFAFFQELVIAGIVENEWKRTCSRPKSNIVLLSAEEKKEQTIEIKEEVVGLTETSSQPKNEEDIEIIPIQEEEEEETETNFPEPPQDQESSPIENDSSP

T2: CD20 (human B lymphocyte-restricted differentiation antigen, Bp35) on human Burkitt lymphoma cells (Raji, … (human, UniProt P11836 1-297))
T2 construct: whole, on cells; also called cell-surface CD20
T2 sequence (looked up): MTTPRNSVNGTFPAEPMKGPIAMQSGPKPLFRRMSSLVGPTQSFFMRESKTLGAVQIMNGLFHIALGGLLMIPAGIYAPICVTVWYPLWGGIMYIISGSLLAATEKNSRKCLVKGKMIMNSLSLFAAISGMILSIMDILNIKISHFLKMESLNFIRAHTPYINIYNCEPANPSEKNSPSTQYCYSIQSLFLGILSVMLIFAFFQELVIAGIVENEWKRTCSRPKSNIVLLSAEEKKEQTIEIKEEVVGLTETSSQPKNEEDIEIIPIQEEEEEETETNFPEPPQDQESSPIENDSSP


Experiments:
[1] = target: T1, CD20 (human B lymphocyte-restricted differentiation antigen, Bp35) on human Burkitt lymphoma cells (Raji, Daudi, Ramos) (human); assay: cell-based or functional assay
[2] = target: T1, CD20 (human B lymphocyte-restricted differentiation antigen, Bp35) on human Burkitt lymphoma cells (Raji, Daudi, Ramos) (human); assay: flow cytometry dissociation of PE-labeled MAb from Raji cells at 37 C without competing veltuzumab-Fab'-NEM
[3] = target: T2, CD20 (human B lymphocyte-restricted …); assay: saturation binding of 125I-labeled MAb to Raji cells, nonlinear regression / Scatchard, replicate assays
Description: Raji cells (5×10⁵) were incubated with radioiodinated MAbs in an assay volume of 225 μl, using tissue culture media as diluent, for 1 h at 37° C. or room temperature. Cells then were washed twice with PBS containing 1% horse serum, and cell pellets were counted in a gamma counter. The MAbs were titrated at a 2:3 serial dilution starting with approximately 2×10⁶ cpm/2 μg MAb/tube, run in triplicate. Non-specific binding was measured by including replicate unlabeled MAb.

[4] = target: T2, CD20 (human B lymphocyte-restricted …); assay: flow cytometry dissociation of PE-labeled MAb from Raji cells at 37 C without competing veltuzumab-Fab'-NEM
Description: The off-rate was determined by non-linear regression (one phase exponential decay) and P-values were generated by F-test using GraphPad Prism software.
(§1) Cells (Daudi, Raji, or Ramos) in 0.5 mL of CM (phenol red-free RPMI 1640 media supplemented with 10% FBS) at 1×10⁶ cells/mL were incubated with 5 μg of each PE-labeled MAb at room temperature for 30 min, pelleted at 400×g, washed twice with CM, resuspended in 1.5 mL of CM, and split into two 0.75-mL aliquots. […] Subsequent measurements were taken at 30-min intervals. The percent maximal binding, which is the quotient of the MFI at T=X divided by that at T=0, was plotted against time, and the results analyzed by Prism software (GraphPad Software Inc., San Diego, Calif.) to yield the half-life or off-rates.

[5] = target: T2, CD20 (human B lymphocyte-restricted …); assay: flow cytometry dissociation from lymphoma cells, with or without a competitive binder
Description: as §1

anti-idiotype antibodies = assay: binding of radioiodinated MAb to anti-idiotype antibodies
[6] = target: T2, CD20 (human B lymphocyte-restricted …); assay: flow cytometry dissociation of PE-labeled MAb from Daudi, Ramos and Raji cells at 37 C with excess veltuzumab-Fab'-NEM
Description: as §1

[7] = target: T2, CD20 (human B lymphocyte-restricted …); assay: flow cytometry dissociation of PE-labeled MAb from Raji cells at 37 C with excess veltuzumab-Fab'-NEM
Description: as §1

Row | Kd [3] [nM] | half-life (dissociation) [4] [h] | fold slower off-rate than rituximab or D101N [5] [fold] | Molecule | further results
1 |  |  |  | hMN-14 IgG (labetuzumab), humanized anti-CEACAM5 monoclonal antibody, negative control | ADCC (% lysis) of Daudi cells with PBMCs, negative control MAb [1]: 9.9 % lysis
2 |  |  |  | 1F5, murine anti-CD20 monoclonal antibody (antibody, from another filing, V domains shown) VH: QVQLRQPGAELVKPGASVKMSCKASGYTFTSYNMHWVKQTPGQGLEWIGAIYPGNGDTSYNQKFKGKATLTADKSSSTAYMQLSSLTSEDSAVYYCARSHYGSNYVDYFDYWGQGTTLTVSS VL: QIVLSQSPAILSASPGEKVTMTCRASSSLSFMHWYQQKPGSSPKPWIYATSNLASGVPARFSGSGSGTSYSLTISRVEAEDAATYFCHQWSSNPLTFGAGTKLELKR | half-life (dissociation) [2]: 3.25 h
3 | 6.7 to 8.63 | 1.57 |  | rituximab, chimeric anti-CD20 monoclonal antibody (IDEC-c2B8) (antibody, V domains shown, Commercial chimeric antibody with human constant regions; also called Rmab; Rituxan) VH: QVQLQQPGAELVKPGASVKMSCKASGYTFTSYNMHWVKQTPGRGLEWIGAIYPGNGDTSYNQKFKGKATLTADKSSSTAYMQLSSLTSEDSAVYYCARSTYYGGDWYFNVWGQGTTVTVSS VL: QIVLSQSPAILSASPGEKVTMTCRASSSVSYIHWFQQKPGSSPKPWIYATSNLASGVPVRFSGSGSGTSYSLTISRVEAEDAATYYCQQWTSNPPTFGGGTK | 
4 |  |  | ~2.5 | cA20, chimeric anti-CD20 antibody (antibody, V domains shown, Chimeric antibody: murine variable regions on human constant regions) VH: QVQLQQPGAELVKPGASVKMSCKASGYTFTSYNMHWVKQTPGRGLEWIGAIYPGNGDTSYNQKFKGKATLTADKSSSTAYMQLSSLTSEDSAVYYCARSTYYGGDWYFDVWGQGTTVTVSS VL: DIQLTQSPAILSASPGEKVTMTCRASSSVSYIHWFQQKPGSSPKPWIYATSNLASGVPVRFSGSGSGTSYSLTISRVEAEDAATYYCQQWTSNPPTFGGGTKLEIK | 
5 | 6.23 to 12 | 4.68 | ~2.5 | veltuzumab (hA20), humanized anti-CD20 IgG-kappa monoclonal antibody (antibody, V domains shown, also called v-mab; Vmab) VH: QVQLQQSGAEVKKPGSSVKVSCKASGYTFTSYNMHWVKQAPGQGLEWIGAIYPGNGDTSYNQKFKGKATLTADESTNTAYMELSSLRSEDTAFYYCARSTYYGGDWYFDVWGQGTTVTVSS VL: DIQLTQSPSSLSASVGDRVTMTCRASSSVSYIHWFQQKPGKAPKPWIYATSNLASGVPVRFSGSGSGTDYTFTISSLQPEDIATYYCQQWTSNPPTFGGGTKLEIK | immunoreactivity (anti-idiotype antibodies): > 90%; fold longer dissociation half-life than rituximab [6]: 2.7 fold
6 |  | 0.7 |  | D101N, mutant of veltuzumab with aspartic acid changed to asparagine at Kabat position 101 in CDRH3 (antibody, name in Kabat numbering, V domains shown, It has the same CDRs as rituximab and FRs identical to veltuzumab, with the same constant regions as veltuzumab (hA20-pdHL2 vector); also called D101N-hA20) VH: QVQLQQSGAEVKKPGSSVKVSCKASGYTFTSYNMHWVKQAPGQGLEWIGAIYPGNGDTSYNQKFKGKATLTADESTNTAYMELSSLRSEDTAFYYCARSTYYGGDWYFNVWGQGTTVTVSS VL: DIQLTQSPSSLSASVGDRVTMTCRASSSVSYIHWFQQKPGKAPKPWIYATSNLASGVPVRFSGSGSGTDYTFTISSLQPEDIATYYCQQWTSNPPTFGGGTKLEIK | fold faster off-rate than rituximab [7]: 2 fold; fold faster off-rate than veltuzumab [7]: 6 fold
